Reference: PMC11630628 (Molecular Plant, 2024)

Columns and labels:
[1] = tested on: Arabidopsis WT intact rosette leaves; assay: Exogenous peptide application on intact rosette leaves; assay type: in vivo, Arabidopsis thaliana; conditions: SCOOP10 1 μM sprayed, vs mock
Procedure: A. thaliana ecotype Columbia-0 and mutants used in this study include mik2-1 (SALK_06269), mik2-2 (CS419958), proscoop10-1 (SALK_080439), and proscoop10-2 (SALK_027949), which were obtained from ABRC. The proscoop12 CRISPR-Cas9-generated mutants were kindly provided by Dr. Elia Stahi at the University of Lausanne, Switzerland ([Stahl et al., 2022]). Imbibed seeds were incubated at 4°C in a refrigerator for 2 days before sowing on the soil mix (3 parts commercial soil: 1 parts vermiculite) and grown under the long-day condition (16 h light/8 h dark) in a growth chamber with 150 μmol m^−2 s^−1 light intensity. For the senescence phenotyping of detached leaves, the fifth and sixth rosette leaves of 25-day-old plants were removed and placed in Petri dishes with the adaxial side facing up. The Petri dishes were sealed with parafilm to prevent water loss, and the leaves were incubated with deionized water. The application of exogenous peptides followed the previously established method ([Zhang et al., 2022a], [2022b]). For dark-induced leaf senescence assays, detached rosette leaves were incubated in deionized water placed in the dark condition for 6 days. At least three biological replicates were included for each assay. For senescence phenotype analysis under normal growth conditions, homozygous plants were grown alongside Col-0. All data including plant phenotypes and gene expression presented in this study were analyzed with GraphPad Prism 9, and at least three biological replicates were included in each experiment. Chl content, photochemical efficiency of PSII (Fv/Fm ratio), and ion leakage were determined as previously described ([Zhang et al., 2020], [2022b]; [Guo et al., 2022]).
Figure S4. […]
after 1 to 10 days of treatments. Three independent experiments were performed with 8 leaves measured for each […]
determined by one-way ANOVA (α = 0.05) followed by Bonferroni post-hoc test for multiple comparisons (*P ≤ 0.05, ***P […]
indicate statistically significant differences compared to WT, as determined by one-way ANOVA analysis (α = 0.05) […]

[2] = tested on: ORE1, NAP and SAG12 transcripts; assay: qPCR expression of senescence genes in detached leaves; assay type: cell-based, Arabidopsis thaliana; conditions: 1 μM peptide, 0, 1, 5, 10 h, detached sixth rosette leaves, vs mock, ACTIN reference, three experiments
Text: (§1) Total RNA was isolated from Arabidopsis leaves with the RNAiso Plus (TAKARA) and reverse transcribed using the PrimeScript RT reagent Kit (TAKARA). qPCR reactions were implemented in an Applied Biosystems 7500 Real-Time PCR system with the SYBR Premix Ex Taq II (TAKARA). ACTIN was used as the reference gene for qPCR analyses. The primers used for qPCR are listed in Supplemental Table 2.

PROSCOOP12 transcript = assay: qPCR expression of PROSCOOP12 in detached leaves; assay type: cell-based, Arabidopsis thaliana
Text: as §1

[3] = tested on: MIK2-dependent plant immune response; conditions: ref Hou et al., 2021b, Rhodes et al.; cited from earlier work
Text: Senescence, a crucial biological event in plant development, involves the coordinated breakdown of cellular components to recycle nutrients, aiding adaptation to changing environments. It optimizes nutrient storage and reuse, particularly in leaves, the primary photosynthetic organs. Initiation of leaf senescence prompts various physiological changes, including chlorophyll (Chl) reduction and macromolecule degradation, enabling nutrient recycling that supports the growth of seeds and fruits ([Yang et al., 2014]; [Kim et al., 2018]; [Woo et al., 2019]; [Guo et al., 2021]). Efficient senescence ... || MIK2 was also linked to cell wall integrity ([Van der Does et al., 2017]; [Coleman et al., 2020]) and disease resistance ([Van der Does et al., 2017]). MIK2 was reported to function in elicitor perception in response to infection by Fusarium spp. fungi ([Van der Does et al., 2017]; [Coleman et al., 2020]). […] Loss-of-function in p ...

[4] = tested on: Arabidopsis root elongation; conditions: ref Hou et al., 2021b, Rhodes et al.; cited from earlier work
Text: Senescence, a crucial biological event in plant development, involves the coordinated breakdown of cellular components to recycle nutrients, aiding adaptation to changing environments. It optimizes nutrient storage and reuse, particularly in leaves, the primary photosynthetic organs. Initiation of leaf senescence prompts various physiological changes, including chlorophyll (Chl) reduction and macromolecule degradation, enabling nutrient recycling that supports the growth of seeds and fruits ([Yang et al., 2014]; [Kim et al., 2018]; [Woo et al., 2019]; [Guo et al., 2021]). Efficient senescence ...

bak1 mutants = tested on: bak1 mutants; design: method as in Hou et al., 2021b; conditions: ref Hou et al., 2021b; cited from earlier work
[5] = tested on: bak1-5 serk4 double mutant; design: method as in Hou et al., 2021b; conditions: ref Hou et al., 2021b; cited from earlier work
bik1 pbl1 double mutants = tested on: bik1 pbl1 double mutants; design: method as in Hou et al., 2021b; conditions: ref Hou et al., 2021b; cited from earlier work

B1: SERINE-RICH ENDOGENOUS PEPTIDE 10 (peptide)
peptide: ALPYHHELFLGRKRMNYYKPNSAIGTPSSTSDHAPGSNGRKLMSIYRPNGDIFTGPSGSGHGGGRTPAP
notes: processed from PROSCOOP10; synthesized by GenScript
[1]; 1 to 10 days, WT, sixth rosette leaves
  Chl content, intact rosette leaves: reduced Chl content
[1]; 10 days, 4-week-old WT, three experiments, 8 leaves each
  leaf senescence, intact rosette leaves: significantly accelerated leaf senescence
[1]; WT
  Fv/Fm ratio, intact rosette leaves: reduced Chl content and Fv/Fm ratio
[2]
  expression of ORE1, NAP and SAG12: strongly and relatively quickly induced the expression of the tested transcripts
PROSCOOP12 transcript; 1 μM peptide, no pretreatment, detached leaves, vs mock, qPCR
  PROSCOOP12 expression: induce the expression of PROSCOOP12 within 1 h
PROSCOOP12 transcript; pretreated with SCOOP10 24 h, treated with SCOOP10 for 1, 5 and 10 h
  PROSCOOP12 expression, SCOOP10 pretreatment then SCOOP10: even stronger
[3]
  immune response (published): inducing plant immune responses
[4]
  root elongation (published): inhibiting root elongation
bak1 mutants
  sensitivity of bak1 mutants (root growth inhibition, published): sensitive to SCOOP10 application
[5]
  root growth inhibition in bak1-5 serk4 (published): milder phenotype in response to SCOOP10 treatment
bik1 pbl1 double mutants
  root growth inhibition in bik1 pbl1 (published): only mild alleviation of the SCOOP10-induced root growth inhibition
